PMC2662417, “Pxmp2 Is a Channel-Forming Protein in Mammalian Peroxisomal Membrane” (PLoS ONE, 2009)

B1: native Pxmp2 purified from mouse liver peroxisomes (natural protein, mouse (endogenous in mouse liver), UniProt P42925 1-194, looked up)
chain: MAPAASRLRVESELGSLPKRALAQYLLLLKLYPVLTKAVSSGILSALGNLLAQTIEKKQRKDSRLLEVSGLLRYLVYGLFVTGPLSHYLYLFMEYSVPPEVPWASVKRLLLDRLFFAPTFLLLFFFVMNLLEGKNVSVFVAKMRSGFWPALQMNWRMWTPLQFININYVPLQFRVLFANMAALFWYAYLASLGK
notes: Pxmp2, peroxisomal membrane protein 2 (22 kDa), mouse; native protein isolated from liver peroxisomes; also called PMP22; purified Pxmp2; source: purified from mouse liver peroxisomes (conventional chromatography: ion-exchange and size-exclusion steps, in detergent)
B2: His-tagged Pxmp2 protein (natural protein, mouse, UniProt P42925 1-194, looked up)
chain: B1 chain
notes: Pxmp2, mouse, recombinant with a His tag (about 27 kDa); also called mouse recombinant Pxmp2

How the values were obtained:
[1] = target: the molecule itself; test: SEC + cross-linking; purified native Pxmp2 in detergent; Superdex 200 size-exclusion chromatography; protein eluted from the column treated with Sulfo-EGS, immunoblot with anti-Pxmp2; details in Text S1
[2] = target: the molecule itself; test: cross-linking; Genapol X-080-solubilised proteins (about 50 ug) of the PPF of Sf9 cells expressing His-tagged Pxmp2; DSS at 0.1, 0.2, 0.5 and 1.0 mM, 30 min at room temperature; SDS-PAGE, immunoblot with anti-His-tag antibodies

Protein	stoichiometry N [1]	stoichiometry N [2]
B1	3	–
B2	–	3
